Results as given in the supplement of paper PMC11780869.

Tested on: Bacillus subtilis
Experiment: cleaved RNA product abundance (RNA/gDNA barcode ratio) relative to median wild-type variant (ratio to wild type); higher = more accumulation of the downstream cleavage product
Conditions: experiment (reporter, strain, medium): exp 8a: truncated aprE reporter, strain BJT201 with 2% xylose (RNase J1 expressed); cleavage site: glnRA (positions -5 to +31 mutated)
Method in brief: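 Cleaved product abundance for each construct is its RNA-to-gDNA barcode ratio, scaled to the median construct carrying the unmutated site. Cleaved RNA was isolated on a gel, reverse transcribed and barcode-sequenced, with genomic DNA barcodes sequenced alongside and UMIs collapsed. The reporters were truncated aprE or tetM mRNAs with barcoded, mutagenized RNase Y cleavage-site windows integrated into the B. subtilis chromosome, and cultures grew in LB at 37°C from OD600 0.0003 to 0.3.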

Row | Sequence | cleaved RNA product abundance
1 | CGACATGTCCCGCTTCTTTCATTAATCCGTTAGCAACTGTTGTGCTATATACATTTACCTTTTAAGAGGAGGAAT | 0.516
2 | CGACATGTCCCGCTTCTTTCATTAATCCGTTAGCAACTGTTGTGCTATATATATTTACCTTTTAAGAGGAGGAAT | 0.736
3 | CGACATGTCCCGCTTCTTTCATTAATCCGTTAGCAACTGTTTAACTATATACATTTACCTTTTAAGAGGAGGAAT | 0.378
4 | CGACATGTCCCGCTTCTTTCATTAATCCGTTAGCAACTGTTTAGATATATACATTTACCTTTTAAGAGGAGGAAT | 0.297
5 | CGACATGTCCCGCTTCTTTCATTAATCCGTTAGCAACTGTTTAGCAATATACATTTACCTTTTAAGAGGAGGAAT | 0.455
6 | CGACATGTCCCGCTTCTTTCATTAATCCGTTAGCAACTGTTTAGCCATATACATTTACCTTTTAAGAGGAGGAAT | 0.259
7 | CGACATGTCCCGCTTCTTTCATTAATCCGTTAGCAACTGTTTAGCTAAATACATTTACCTTTTAAGAGGAGGAAT | 0.212
8 | CGACATGTCCCGCTTCTTTCATTAATCCGTTAGCAACTGTTTAGCTATATAAATTTACCTTTTAAGAGGAGGAAT | 0.426
9 | CGACATGTCCCGCTTCTTTCATTAATCCGTTAGCAACTGTTTAGCTATATACATATACCTTTTAAGAGGAGGAAT | 0.539
10 | CGACATGTCCCGCTTCTTTCATTAATCCGTTAGCAACTGTTTAGCTATATACATTAACCTTTTAAGAGGAGGAAT | 0.618
11 | CGACATGTCCCGCTTCTTTCATTAATCCGTTAGCAACTGTTTAGCTATATACATTTAACTTTTAAGAGGAGGAAT | 0.462
12 | CGACATGTCCCGCTTCTTTCATTAATCCGTTAGCAACTGTTTAGCTATATACATTTACATTTTAAGAGGAGGAAT | 0.588
13 | CGACATGTCCCGCTTCTTTCATTAATCCGTTAGCAACTGTTTAGCTATATACATTTACCTTTTAAGAGGAGGAAT | 0.537
14 | CGACATGTCCCGCTTCTTTCATTAATCCGTTAGCAACTGTTTAGCTATATACATTTACTTTTTAAGAGGAGGAAT | 0.591
15 | CGACATGTCCCGCTTCTTTCATTAATCCGTTAGCAACTGTTTAGCTATATACATTTAGCTTTTAAGAGGAGGAAT | 0.608
16 | CGACATGTCCCGCTTCTTTCATTAATCCGTTAGCAACTGTTTAGCTATATACATTTATCTTTTAAGAGGAGGAAT | 0.572
17 | CGACATGTCCCGCTTCTTTCATTAATCCGTTAGCAACTGTTTAGCTATATACATTTGCCTTTTAAGAGGAGGAAT | 0.326
18 | CGACATGTCCCGCTTCTTTCATTAATCCGTTAGCAACTGTTTAGCTATATATATTTACCTTTTAAGAGGAGGAAT | 0.416
19 | CGACATGTCCCGCTTCTTTCATTAATCCGTTAGCAACTGTTTAGCTTTATACATTTACCTTTTAAGAGGAGGAAT | 0.192
20 | CGACATGTCCCGCTTCTTTCATTAATCCGTTAGCAACTGTTTAGGTATATACATTTACCTTTTAAGAGGAGGAAT | 0.227
21 | CGACATGTCCCGCTTCTTTCATTAATCCGTTAGCAACTGTTTAGTTATATACATTTACCTTTTAAGAGGAGGAAT | 0.327
22 | CGACATGTCCCGCTTCTTTCATTAATCCGTTAGCAACTGTTTATCTATATACATTTACCTTTTAAGAGGAGGAAT | 0.501

Row | Sequence | cleaved RNA product abundance
23 | CGACATGTCCCGCTTCTTTCATTAATCCGTTAGCAACTGTTTCACTATATACATTTACCTTTTAAGAGGAGGAAT | 0.694
24 | CGACATGTCCCGCTTCTTTCATTAATCCGTTAGCAACTGTTTCGCTATACACATTTACCTTTTAAGAGGAGGAAT | 0.222
25 | CGACATGTCCCGCTTCTTTCATTAATCCGTTAGCAACTGTTTCGCTATATACATGTACCTTTTAAGAGGAGGAAT | 0.361
26 | CGACATGTCCCGCTTCTTTCATTAATCCGTTAGCAACTGTTTCGCTATATACATTTACCTTTTAAGAGGAGGAAT | 0.358
27 | CGACATGTCCCGCTTCTTTCATTAATCCGTTAGCAACTGTTTCGCTTTATACATTTACCTTTTAAGAGGAGGAAT | 0.267
28 | CGACATGTCCCGCTTCTTTCATTAATCCGTTAGCAACTGTTTCGTTATATACATTTACCTTTTAAGAGGAGGAAT | 0.222
29 | CGACATGTCCCGCTTCTTTCATTAATCCGTTAGCAACTGTTTGACTATATACATTTACCTTTTAAGAGGAGGAAT | 0.605
30 | CGACATGTCCCGCTTCTTTCATTAATCCGTTAGCAACTGTTTGCTATATACATTTACCTTTTAAGAGGAGGAATT | 1.42
31 | CGACATGTCCCGCTTCTTTCATTAATCCGTTAGCAACTGTTTGGCAATATACATTTACCTTTTAAGAGGAGGAAT | 0.499
32 | CGACATGTCCCGCTTCTTTCATTAATCCGTTAGCAACTGTTTGGCTATAAACATTTACCTTTTAAGAGGAGGAAT | 0.327
33 | CGACATGTCCCGCTTCTTTCATTAATCCGTTAGCAACTGTTTGGCTATATAAATTTACCTTTTAAGAGGAGGAAT | 0.518
34 | CGACATGTCCCGCTTCTTTCATTAATCCGTTAGCAACTGTTTGGCTATATACAATTACCTTTTAAGAGGAGGAAT | 0.279
35 | CGACATGTCCCGCTTCTTTCATTAATCCGTTAGCAACTGTTTGGCTATATACATTTAACTTTTAAGAGGAGGAAT | 0.488
36 | CGACATGTCCCGCTTCTTTCATTAATCCGTTAGCAACTGTTTGGCTATATACATTTACATTTTAAGAGGAGGAAT | 0.339
37 | CGACATGTCCCGCTTCTTTCATTAATCCGTTAGCAACTGTTTGGCTATATACATTTACCGTTTAAGAGGAGGAAT | 0.403
38 | CGACATGTCCCGCTTCTTTCATTAATCCGTTAGCAACTGTTTGGCTATATACATTTACCTTTTAAGAGGAGGAAT | 0.493
39 | CGACATGTCCCGCTTCTTTCATTAATCCGTTAGCAACTGTTTGGCTATATACATTTACGTTTTAAGAGGAGGAAT | 0.403
40 | CGACATGTCCCGCTTCTTTCATTAATCCGTTAGCAACTGTTTGGCTATATATATTTACCTTTTAAGAGGAGGAAT | 0.546
41 | CGACATGTCCCGCTTCTTTCATTAATCCGTTAGCAACTGTTTTAAAATATACATTTACCTTTTAAGAGGAGGAAT | 0.571
42 | CGACATGTCCCGCTTCTTTCATTAATCCGTTAGCAACTGTTTTAATATATACATTTACCTTTTAAGAGGAGGAAT | 0.589
43 | CGACATGTCCCGCTTCTTTCATTAATCCGTTAGCAACTGTTTTACAATATACATTTACCTTTTAAGAGGAGGAAT | 0.534
44 | CGACATGTCCCGCTTCTTTCATTAATCCGTTAGCAACTGTTTTACGATATACATTTACCTTTTAAGAGGAGGAAT | 0.559

Row | Sequence | cleaved RNA product abundance
45 | CGACATGTCCCGCTTCTTTCATTAATCCGTTAGCAACTGTTTTACTAAATACATTTACCTTTTAAGAGGAGGAAT | 0.499
46 | CGACATGTCCCGCTTCTTTCATTAATCCGTTAGCAACTGTTTTACTATAAACATTTACCTTTTAAGAGGAGGAAT | 0.553
47 | CGACATGTCCCGCTTCTTTCATTAATCCGTTAGCAACTGTTTTACTATATAAATTTACCTTTTAAGAGGAGGAAT | 0.596
48 | CGACATGTCCCGCTTCTTTCATTAATCCGTTAGCAACTGTTTTACTATATACAATTACCTTTTAAGAGGAGGAAT | 0.613
49 | CGACATGTCCCGCTTCTTTCATTAATCCGTTAGCAACTGTTTTACTATATACAATTACTTTTTAAGAGGAGGAAT | 0.712
50 | CGACATGTCCCGCTTCTTTCATTAATCCGTTAGCAACTGTTTTACTATATACATATACCTTTTAAGAGGAGGAAT | 1.11
51 | CGACATGTCCCGCTTCTTTCATTAATCCGTTAGCAACTGTTTTACTATATACATCTACCTTTTAAGAGGAGGAAT | 0.506
52 | CGACATGTCCCGCTTCTTTCATTAATCCGTTAGCAACTGTTTTACTATATACATGTACCTTTTAAGAGGAGGAAT | 0.471
53 | CGACATGTCCCGCTTCTTTCATTAATCCGTTAGCAACTGTTTTACTATATACATTCACCTTTTAAGAGGAGGAAT | 0.4
54 | CGACATGTCCCGCTTCTTTCATTAATCCGTTAGCAACTGTTTTACTATATACATTTAACTTTTAAGAGGAGGAAT | 0.539
55 | CGACATGTCCCGCTTCTTTCATTAATCCGTTAGCAACTGTTTTACTATATACATTTACATTTTAAGAGGAGGAAT | 0.688
56 | CGACATGTCCCGCTTCTTTCATTAATCCGTTAGCAACTGTTTTACTATATACATTTACCCTTTAAGAGGAGGAAT | 0.921
57 | CGACATGTCCCGCTTCTTTCATTAATCCGTTAGCAACTGTTTTACTATATACATTTACCTTTTAAGAGGAGGAAT | 0.619
58 | CGACATGTCCCGCTTCTTTCATTAATCCGTTAGCAACTGTTTTACTATATACATTTACGTTTTAAGAGGAGGAAT | 0.77
59 | CGACATGTCCCGCTTCTTTCATTAATCCGTTAGCAACTGTTTTACTATATACATTTACTTTTTAAGAGGAGGAAT | 0.621
60 | CGACATGTCCCGCTTCTTTCATTAATCCGTTAGCAACTGTTTTACTATATACATTTATCTTTTAAGAGGAGGAAT | 0.588
61 | CGACATGTCCCGCTTCTTTCATTAATCCGTTAGCAACTGTTTTACTATATACATTTTCCTTTTAAGAGGAGGAAT | 0.458
62 | CGACATGTCCCGCTTCTTTCATTAATCCGTTAGCAACTGTTTTACTATATACGTTTACCTTTTAAGAGGAGGAAT | 0.455
63 | CGACATGTCCCGCTTCTTTCATTAATCCGTTAGCAACTGTTTTACTATATATATTTACCTTTTAAGAGGAGGAAT | 0.708
64 | CGACATGTCCCGCTTCTTTCATTAATCCGTTAGCAACTGTTTTACTATATTCATTTACCTTTTAAGAGGAGGAAT | 0.189
65 | CGACATGTCCCGCTTCTTTCATTAATCCGTTAGCAACTGTTTTACTCTATACATTTACCTTTTAAGAGGAGGAAT | 0.597
66 | CGACATGTCCCGCTTCTTTCATTAATCCGTTAGCAACTGTTTTATTATATACATTTACCTTTTAAGAGGAGGAAT | 0.698
